Consider 14 molecules from patent publication US20140056903A1 (Regeneron, published 2014).

Where a chain is given by its changes, count along the chain named. Numbers in names are those of the source.

To fix the notation:
B1: H4H2342P (antibody, human IgG4, V domains shown)
VH: EVQLLESGGGLVQPGGSLRLSCAASGFTFSTYAMSWVRQAPGKGLEWVSAIRGNGVNTYYGDSMKGRFTISRDNSKDTLYLQMNSLRAEDTAVYYCAKNKWELLVFEYWGQGTLVTVSS
VL: DIQMTQSPSSLSASVGDRVTITCRASQDISNYLAWYQQKPGKVPKLLIYAASTLQSGVPFRFSGSGSGTDFTLTISSLQPEDVATYYCQKYNSAPPFGPGTKVDIK
notes: human IgG4 Fc (H4H)
B2: H4H2344S (antibody, human IgG4, V domains shown)
VH: EVQLVESGGGVVQPGRSLRLSCAASGFSFSDYVMHWVRQAPGKGLEWVASIWFDGSNEFYADSVKGRFTISRDNSKNTLFLQMNSLRAEDTAVYYCAKKGVLVATSAFDIWGQGTMVTVSS
VL: DIQMTQSPSSLSASVGDRVTITCRASQSINNYLNWYHQKPGKAPKLLIYAASSLQSGVPSRFSGSGSGTDYTLTISSLQPEDFGNYYCQQSYRTSMYTFGQGTKVEIK
notes: human IgG4 Fc (H4H)
B3: H4H2354S (antibody, human IgG4, V domains shown)
VH: B2 VH with E1Q
VL: B2 VL with M4L
notes: human IgG4 Fc (H4H); also called H4H2354S-1
B4: H4H2346S (antibody, human IgG4, V domains shown)
VH: B2 VH with E1Q
VL: B2 VL with D1E, Q3V
notes: human IgG4 Fc (H4H)
B5: H4H2293P (antibody, human IgG4, V domains shown)
VH: B2 VH with E1Q, F59L, D109H
VL: B2 VL with D1A, S28N, K45N, R93S, V105L
notes: human IgG4 Fc (H4H)
B6: H4H2345S (antibody, human IgG4, V domains shown)
VH: EVQLVESGGGLVRPGRSLRLSCAASGFTFDNYAMHWVRQVPGKGLEWVSGITWNSVSLGYADSVKGRFTISRDNAQNSLYLQMNSLRTVDTALYYCAKDRWGGSYYFDFWGQGTLVTVSS
VL: DIVMTQSPSSLSASVGDRVTITCRASQGISNYLAWYQQKPGKVPKLLIYSASTLQSGVPSRFSGSGSGTDFTLTISNLQPEDFATFFCQKYNSAPTFGGGTKVEIK
notes: human IgG4 Fc (H4H)
B7: H4H2236N3 (antibody, human IgG4, V domains shown)
VH: EVQLLESGGNLVQPGGSLRLSCAASGFTFSSYAMTWVRQAPGKGLEWVSTISGSGTSTYYADSVKGRFTISRDNSRDTVFLQMNSLRAEDTAVYYCSKPSALRFLHWLAMDVWGQGTLVTVSS
VL: DIQMTQSPSSLSAFVGDRVTITCRASQDIRNYLDWFQQKPGKAPKSLIYAASNLQSGVPSRFGGSGSGTDFTLTINSLQPEDFVTYYCQQYNSYPPTFGGGTKVEIK
notes: human IgG4 Fc (H4H)
B8: H4H2341S (antibody, human IgG4, V domains shown)
VH: EVQLVESGAEVKKSGSSVKVSCKASGGTFSRYAISWVRQAPGQGLEWMGGIIPLFGTLNYAQKFQGRVTLTTDESTSTAYMELSSLRSEDTAVYYCAVFYYGSGSYRNWFDPWGQGTLVTVSS
VL: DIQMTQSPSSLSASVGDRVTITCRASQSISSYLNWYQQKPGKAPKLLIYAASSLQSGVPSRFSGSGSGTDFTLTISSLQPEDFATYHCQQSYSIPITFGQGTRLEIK
notes: human IgG4 Fc (H4H)
B9: H4H2291S (antibody, human IgG4, V domains shown)
VH: EVQLVESGGGLVQPGESLRLSCAASGFTFSNYAMSWVRQAPGKGLEWVSVISGSGGSTYYADSVKGRFTMSRDNSKNTLYLQMNSLRAEDTAVYYCAKPPSRAARYFNYGMDVWGQGTTVTVSS
VL: AIRMTQSPSSVSASVGDRVTITCRASQGISSWLAWYQQKPGKAPKLLIYAASSLQSGVPSRFSGSGSGTDFTLTISSLQPEDFATYYCQQANSFPFTFGGGTKVEIK
notes: human IgG4 Fc (H4H)
B10: H4H2295S (antibody, human IgG4, V domains shown)
VH: EVQLVESGGGLVQAGGSLRLSCVASGFTFSSYAMSWVRQAPGKGLEWVSAISGSGGSTYSADSVKGRFTISRDNSKNTLYLQMNSLRAEDTAVYYCTKPSSYSSSNFYYGMDVWGQGTTVTVSS
VL: B9 VL with A1D, R3Q, A50T, G68R, A91T, F94L, F96L, G100P
notes: human IgG4 Fc (H4H)
B11: H4H2296S (antibody, human IgG4, V domains shown)
VH: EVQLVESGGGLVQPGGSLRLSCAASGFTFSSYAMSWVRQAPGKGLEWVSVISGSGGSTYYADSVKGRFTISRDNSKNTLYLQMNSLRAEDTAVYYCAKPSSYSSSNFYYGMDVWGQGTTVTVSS
VL: B9 VL with A1D, R3V, Q55R, S76T, Q90H, A91T, G100P
notes: human IgG4 Fc (H4H)
B12: H4H2294S (antibody, human IgG4, V domains shown)
VH: B10 VH with A14P, V23A, A50V, S60Y, S63A, N77H, T118S
VL: B9 VL with A1D, R3Q, M4L, A91T, T97P, G100P, E105D
notes: human IgG4 Fc (H4H)
B13: H4H2364S (antibody, human IgG4, V domains shown)
VH: B10 VH with V12E, A14P, V23A, A33V, A40V, A50V, S60Y, T97A, Y108H
VL: B9 VL with A1D, R3Q, S9Y, K42R, Q90K, A91T, G100P
notes: human IgG4 Fc (H4H)
B14: H4H2212N (antibody, human IgG4, V domains shown)
VH: EVQLLESGGGLVQPGGSLRLSCAASGFTFSSYAMSWVRQGPGKGLEWVSGISGSGGSTYNADSVKGRFTISRDNSKNTLYLQMNSLRAEDTAVYYCAKDSGTYWYYFDYWGQGILVTVSS
VL: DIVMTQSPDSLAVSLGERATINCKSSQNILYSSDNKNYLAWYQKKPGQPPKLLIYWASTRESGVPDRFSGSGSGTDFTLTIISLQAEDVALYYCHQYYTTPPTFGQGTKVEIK
notes: human IgG4 Fc (H4H)

As a reminder, the Kd is the free concentration of one partner at which half of the binding sites on the other are occupied at equilibrium, for simple one-to-one binding. Read a low Kd as a tighter complex. The koff is the rate constant with which the complex falls apart. A higher koff goes with a short-lived complex. The kon is a measure of how fast the partners come together. Low readings indicate slower complex formation, high ones faster complex formation.

One test has as its target T1, human GFRα3 expressed with a C-terminal myc-myc-hexahistidine tag (human, UniProt O60609 32-374, biotinylated (sites not given) in ELISA format 2 and in the Octet cross-competition; not in SPR).
T1 construct: also called hGFRα3-mmh; hGFRα3-mmH
The test is described as follows: SPR, Ab captured, 37C. Put shortly: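 Anti-GFRα3 antibodies were captured on anti-mouse or anti-human IgG surfaces on a CM5 chip in HBS-EP or PBS with 0.05% P20. Myc-myc-His-tagged antigens were injected at 200 to 7.4 nM, hFc-tagged at 100 to 3.7 nM (3-fold dilutions). Rates were fitted to a 1:1 model; KD = kd/kₐ.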
A general note: Surface plasmon resonance follows binding to a sensor surface in real time, without labels.
Consider B1, for which the affinity, expressed as Kd, was 2.03 nM; the koff was 0.000671 s⁻¹; the kon stood at 330000 M⁻¹ s⁻¹; the t1/2 was 17 min.
For B2, in that order: 2.58 nM, 0.000724 s⁻¹, 280000 M⁻¹ s⁻¹ and 16 min.
For the molecule B3, the dissociation constant (Kd) amounted to 2.31 nM, the koff came to 0.000649 s⁻¹, the kon is 281000 M⁻¹ s⁻¹ and the t1/2 was found to be 18 min.
For B4, in that order: 1.41 nM, 0.000589 s⁻¹, 419000 M⁻¹ s⁻¹ and 20 min.
The like results for B5 were, in that order, 0.313 nM, 0.000244 s⁻¹, 781000 M⁻¹ s⁻¹ and 47 min.
The like results for B6 were, in that order, 47.3 nM, 0.0087 s⁻¹, 184000 M⁻¹ s⁻¹ and 1 min.
The molecule B7 came in with a Kd of 0.382 nM, a koff of 0.000748 s⁻¹, a kon of 1.96e+06 M⁻¹ s⁻¹ and a t1/2 of 15 min.
Molecule B8 returned a Kd of 2.98 nM, a koff of 0.000737 s⁻¹, an on-rate constant (kon) of 248000 M⁻¹ s⁻¹ and a t1/2 of 16 min.
For B9, in that order: 0.58 nM, 0.000323 s⁻¹, 558000 M⁻¹ s⁻¹ and 36 min.
B10 registered an equilibrium dissociation constant (Kd) of 1.77 nM, a koff of 0.00119 s⁻¹, an on-rate (kon) of 669000 M⁻¹ s⁻¹ and a t1/2 of 10 min.
The like results for B11 were, in that order, 0.802 nM, 0.000614 s⁻¹, 765000 M⁻¹ s⁻¹ and 19 min.
For B12, in that order: 0.338 nM, 0.000261 s⁻¹, 773000 M⁻¹ s⁻¹ and 44 min.
The like results for B13 were, in that order, 0.809 nM, 0.000273 s⁻¹, 338000 M⁻¹ s⁻¹ and 42 min.

Another test addresses T1, human GFRα3 expressed with a C-terminal …. The test is described as follows: Octet cross-competition; biotin-hGFRα3-mmH pre-saturated with first antibody H4H2292S. How it is done:
(§1) A cross-competition assay was conducted to assess the ability of select antibodies to compete with one another for binding to human GFRα3 using an Octet RED384 biosensor (Fortebio Inc.). The entire experiment was performed at 25° C. with the flow rate of 1000 rpm in Octet HBST buffer (0.01 M HEPES pH7.4, 0.15M NaCl, 3 mM EDTA, 0.05% v/v Surfactant P20, 0.1 mg/mL BSA). To assess whether 2 antibodies were able to compete with one another for binding to their respective epitopes on biotinylated recombinant human GFRα3 expressed with a C-terminal myc-myc-hexahistidine tag (biotin-hGFRα3-mmH; SEQ ID:370), around ˜1.2 nm of biotin-hGFRα3-mmH was first captured onto streptavidin-coated Octet sensor tips (Fortebio Inc, #18-5019) by submerging the tips for 1 minute into a 10 μg/mL solution of biotin-hGFRα3-mmH. The antigen coated sensor tips were then placed into wells containing 25 μg/mL solution of a first anti-GFRα3 monoclonal antibody for 4 minutes to saturate the biotin-hGFRα3-mmH surface. The sensor tips were then subsequently dipped into wells containing 25 μ/mL solution of a second anti-GFRα3 monoclonal antibody. The sensor tips were washed in Octet HBST buffer in between every step of the experiment. The real-time binding response was monitored during the course of the experiment and the binding response at the end of every step was recorded as shown in FIG. 9. The response of mAb-2 binding to biotin-hGFRα3-mmH pre-complexed with the first antibody was compared and competitive/non-competitive behavior of different anti-GFRα3 monoclonal antibodies was determined.
(BLI is a label-free optical method that tracks binding on a fibre tip over time.)
For B1, the “binding response of second antibody (nm)” value was 2.16 nm.
The same measure, in the same setting: the value for B14 was 1.78 nm.
Still for that read-out and setting: for B7 the value was 2.24 nm; for B9, 2.81 nm.
Same read-out and setting: the value for B10 was 2.31 nm; that for B11 was 2.36 nm.
Take B12: the “binding response of second antibody (nm)” value was 2.31 nm.

The target is the same in a further test. The test is described as follows: Octet cross-competition; biotin-hGFRα3-mmH pre-saturated with first antibody H4H2296S. As to the method:
as §1
As to B1, the “binding response of second antibody (nm)” value was 0.03 nm.
The same measure, in the same setting: for B14 the value was 1.76 nm; for B7, 0.07 nm.
With B9, the “binding response of second antibody (nm)” value is 0.18 nm.
Same read-out and setting: for B10 the value was 0.05 nm; for B11, 0.07 nm; for B12, 0.04 nm.

For a further test the target is unchanged. The test is described as follows: Octet cross-competition; biotin-hGFRα3-mmH pre-saturated with first antibody H4H2243N2. As to the method:
as §1
On to B1, for which the “binding response of second antibody (nm)” value was 0.15 nm.
Same read-out and setting: the value for B14 was 0.22 nm; that for B7 was 0.3 nm; that for B9 was 0.52 nm.
Still for that read-out and setting: the value for B10 was 0.39 nm.
The same measure, in the same setting: for B11 the value was 0.33 nm; for B12, 0.29 nm.
